PMC4736438, “Cation–π Interactions Contribute to Substrate Recognition in γ‐Butyrobetaine Hydroxylase Catalysis” (Chemistry (Weinheim an Der Bergstrasse, Germany), 2015)

T1: psBBOX (Pseudomonas sp. AK-1, UniProt P80193)
T1 construct: recombinant, purified on HisTrap and Superdex S200; metal-free buffer
T1 sequence (P80193 1-383): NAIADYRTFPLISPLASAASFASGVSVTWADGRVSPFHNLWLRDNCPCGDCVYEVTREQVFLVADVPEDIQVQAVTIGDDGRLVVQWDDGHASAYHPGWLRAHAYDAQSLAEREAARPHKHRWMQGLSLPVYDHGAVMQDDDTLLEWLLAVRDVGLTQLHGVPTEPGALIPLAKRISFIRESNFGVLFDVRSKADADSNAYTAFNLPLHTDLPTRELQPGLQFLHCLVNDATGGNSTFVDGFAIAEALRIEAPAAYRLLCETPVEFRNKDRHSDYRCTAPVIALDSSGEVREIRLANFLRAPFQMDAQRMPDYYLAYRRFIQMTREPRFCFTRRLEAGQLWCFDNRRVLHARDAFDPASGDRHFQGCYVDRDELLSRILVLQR

B1: psBBOX (Pseudomonas sp. AK-1) (protein)
chain: NAIADYRTFPLISPLASAASFASGVSVTWADGRVSPFHNLWLRDNCPCGDCVYEVTREQVFLVADVPEDIQVQAVTIGDDGRLVVQWDDGHASAYHPGWLRAHAYDAQSLAEREAARPHKHRWMQGLSLPVYDHGAVMQDDDTLLEWLLAVRDVGLTQLHGVPTEPGALIPLAKRISFIRESNFGVLFDVRSKADADSNAYTAFNLPLHTDLPTRELQPGLQFLHCLVNDATGGNSTFVDGFAIAEALRIEAPAAYRLLCETPVEFRNKDRHSDYRCTAPVIALDSSGEVREIRLANFLRAPFQMDAQRMPDYYLAYRRFIQMTREPRFCFTRRLEAGQLWCFDNRRVLHARDAFDPASGDRHFQGCYVDRDELLSRILVLQR
notes: recombinant, purified on HisTrap and Superdex S200; metal-free buffer

How the values were obtained:
psBBOX = biological target: T1, psBBOX; assay: 1H NMR (CPMG) protein titration; assay type: binding
[1] = substrate: C[N+](C)(C)CCCC(=O)[O-]; assay: LC-MS hydroxylation kinetics; assay type: biochemical, Pseudomonas sp. AK-1; conditions: […] psBBOX, […] FeSO4, […] 2OG, […] ascorbate, Tris pH […] K
Text: LC-MS hydroxylation kinetics on psBBOX

Row | Molecule | Kd (psBBOX) | Km [1] | Vmax [1] | kcat [1]
1 | C[N+](C)(C)CCCC(=O)[O-] [compound 1, γBB] | 5 µM |  |  | 
2 | B1 |  | 1000 ± 210 µM | 169 µM/min | 7.02 ± 0.77 s⁻¹
